Assays:
[1] = molecular target: extracellular matrix (ECM) proteins; test: ECM (Matrigel) ELISA, 1 µM antibody
[2] = molecular target: extracellular matrix (ECM) proteins; test: ECM (Matrigel) ELISA, 0.1 µM antibody

B1: P21 (antibody, human IgG1, kappa, V domains shown)
VH: QVQLQQSGPGLVKPSETLSLTCTVSGGSISNYYWTWIRQPPGKGLEWIGYISDSGSTNYNPSLKSRVTISVDTSKNQFSLKLSSVTAADTAVYYCARETIVVRGFYFYVMDVWGQGTTVTVSS
VL: AIQLTQSPSSLSASVGDRVTITCRASQGISSALAWYQQRPGKAPKLLIYDASNWESGVPSRFSGSGSGTDFTLTISSLQPEDFATYYCQQFNSYPWTFGQGTKVEIKR
With B1 as the binder, how does the ECM score [1] read?
Its ECM score is 1.2.

And the ECM score [2]?
Its ECM score is 1.2.
